These results are taken from paper PMC10148881, “Recognition of an Ala-rich C-degron by the E3 ligase Pirh2” (Nature Communications, 2023).

Test [1] addresses T1, Ala6/C-degron peptide (sequence: …).
T1 chain: YKTSAAAAAA
The test can be described thus: ITC. The conditions noted are these: chain shown with the change.

Another test has as its target Pirh2 D94A (human) (UniProt Q96PM5). The experiment in a line: ITC; peptides (0.6–1.0 mM) titrated into the cell with 180–220 μM protein at 16 °C; 20 mM Tris-HCl pH 7.5, 150 mM NaCl, 10 μM Zn2+; one-site binding model. For orientation: Isothermal titration calorimetry measures the heat released or taken up as one component is titrated into another.
The target in the next test is Pirh2 Q99A (human) (UniProt Q96PM5). The description is as above.
Another test concerns the target Pirh2 R54A (human) (UniProt Q96PM5). The test is described as above.
The target of test [2] is Pirh2 with Ala159 substituted with aspartic acid (human) (UniProt Q96PM5). The test is described as above.
Test [3] deals with Pirh2 with Ser155 substituted with aspartic acid (human) (UniProt Q96PM5). The description is as above.

Changes are numbered by the printed parent chain. Names and notes keep the numbering of the source. Where only a bound is given, the exact number is not on record here.

B1: WT Pirh2 S155D (protein)
chain: MAATAREDGASGQERGQRGCEHYDRGCLLKAPCCDKLYTCRLCHDNNEDHQLDRFKVKEVQCINCEKIQHAQQTCEECSTLFGEYYCDICHLFDKDKKQYHCENCGICRIGPKEDFFHCLKCNLCLAMNLQGRHKCIENVSRQNCPICLEDIHTDRVVAHVLPCGHLLHRTCYEEMLKEGYRCPLCMHS
As to B1, in test [1], the Kd worked out at 4.5 µM. This lies in the single-digit micromolar range.

B2: WT Pirh2 A159D (protein)
chain: B1 chain with D155S, A159D
For the molecule B2, the equilibrium dissociation constant (Kd) in test [1] worked out at 7.1 µM. Compared with the last molecule, the Kd is about 1.6-fold higher.

B3: WT Pirh2 Q99A (protein)
chain: B1 chain with Q99A, D155S
B3 gave a dissociation constant (Kd) in test [1] of 3.5 µM.

B4: WT Pirh2 D94A (protein)
chain: B1 chain with D94A, D155S
The molecule B4 displayed a Kd in test [1] of 3 µM.

B5: WT Pirh2 R54A (protein)
chain: B1 chain with R54A, D155S
As for B5, the Kd in test [1] was > 100 µM.
Consider YKTSAAAAAA [Ala6/C-degron peptide (sequence: …)], for which the fold decrease in binding affinity against wild-type Pirh2 with Pirh2 D94A (human) is > 6 fold; in the test with Pirh2 Q99A (human), > 6 fold; with Pirh2 R54A (human) it was > 6 fold; in test [2] it was 14 fold; in test [3] it was 9 fold.

The term Kd denotes the equilibrium constant for the complex coming apart. A lower Kd goes with higher affinity.
